According to publication PMC6467514:

How the values were obtained:
[1] = substrate: Nc1ncnc2c([C@@H]3O[C@H](CO)[C@@H](O)[C@H]3O)snc12; assay: stopped-flow fluorescence Michaelis-Menten kinetics; format: biochemical, Bos taurus
[2] = substrate: Nc1ncnc2c1ncn2[C@@H]1O[C@H](CO)[C@@H](O)[C@H]1O; assay: stopped-flow absorbance Michaelis-Menten kinetics; format: biochemical, Bos taurus

B1: adenosine deaminase (ADA) (Bos taurus) (protein)
chain: AQTPAFNKPKVELHVHLDGAIKPETILYYGRKRGIALPADTPEELQNIIGMDKPLSLPEFLAKFDYYMPAIAGCREAVKRIAYEFVEMKAKDGVVYVEVRYSPHLLANSKVEPIPWNQAEGDLTPDEVVSLVNQGLQEGERDFGVKVRSILCCMRHQPSWSSEVVELCKKYREQTVVAIDLAGDETIEGSSLFPGHVKAYAEAVKSGVHRTVHAGEVGSANVVKEAVDTLKTERLGHGYHTLEDATLYNRLRQENMHFEVCPWSSYLTGAWKPDTEHPVVRFKNDQVNYSLNTDDPLIFKSTLDTDYQMTKNEMGFTEEEFKRLNINAAKSSFLPEDEKKELLDLLYKAYGMPSPASAEQCL
Km [1]: 18.8 ± 3.2 µM | Km [2]: 25.1 ± 3.2 µM
